In one assay the target is T1, RapJ (B. subtilis strain 168, UniProt O34327 1-373).
T1 construct: RapJ, Bacillus subtilis strain 168, amplified from genomic DNA; no heterologous residues after removal of His-Sumo; Phases came from selenomethionyl RapJ crystals; In the functional rows the in vivo RapJ was expressed in B. subtilis VP068 from pDRJ1 (IS75 DNA); also called response regulator aspartate phosphatase J; wild-type RapJ; source: E. coli BL21(DE3), purified (His-60 Ni resin, SUMO …)
T1 sequence (looked up): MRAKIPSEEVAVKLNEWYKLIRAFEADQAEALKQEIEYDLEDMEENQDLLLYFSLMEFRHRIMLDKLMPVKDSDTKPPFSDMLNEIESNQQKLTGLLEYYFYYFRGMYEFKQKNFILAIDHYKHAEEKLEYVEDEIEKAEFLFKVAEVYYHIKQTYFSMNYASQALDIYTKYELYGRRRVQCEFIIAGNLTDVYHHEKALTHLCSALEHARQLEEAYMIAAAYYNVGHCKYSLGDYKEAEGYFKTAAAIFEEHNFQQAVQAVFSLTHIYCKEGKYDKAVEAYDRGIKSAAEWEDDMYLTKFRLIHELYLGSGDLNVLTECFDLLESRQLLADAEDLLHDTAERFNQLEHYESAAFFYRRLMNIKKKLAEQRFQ
In words: SEC + other: MALDI-TOF and MALDI-TOF/TOF mass spectrometry; 8.5 mM PhrC mixed with 425 µM RapJ (wild type or R105A,Y161F), Superdex 200 16/70 in 20 mM Tris-HCl pH 8.0, 50 mM KCl, 5 mM MgCl2, 5 mM DTT; peak fractions analysed for PhrC (m/z 593.27); PhrC alone as control. As to conditions: both partners purified.

In another assay the target is T2, RapJ-R105A,Y161F (B. subtilis, UniProt O34327 1-373, R105A | Y161F).
T2 construct: RapJ, Bacillus subtilis, double mutant R105A,Y161F; same construct limits as wild-type RapJ; source: overexpressed and purified as for X-ray crystallography (E. coli; after the SourceQ step dialysed against buffer H); not shown: His, N-terminal, cleaved; SUMO, N-terminal, cleaved
T2 sequence (looked up): T1 sequence (looked up) with R105A, Y161F
Described as above. As to conditions: both partners purified.

Numbering of substitutions follows the chain as printed.

B1: PhrC (peptide)
peptide: ERGMT
notes: mature PhrC pentapeptide (NH2-ERGMT-COOH), cut from the C-terminus of pro-PhrC, Bacillus subtilis; also called CSF; source: synthetic peptide, bought: LifeTein, 95% purity
Regarding B1, the binding result with RapJ and with RapJ-R105A,Y161F was “binds” each time.
